Assay [1] deals with T1, lysozyme from chicken egg white (chicken, UniProt P00698).
T1 construct: lysozyme C from chicken egg white; source: bought: Sigma-Aldrich
Put plainly: ELISA; antigen coated on MaxiSorp plates (5 ug/mL, carbonate buffer pH 9.6); antibody fragments purified from culture supernatant by cobalt-based immunoprecipitation, serially diluted; detection by anti-6x-His-tag antibody, OD450; room temperature. To be noted: both partners purified. Background: ELISA stands for enzyme-linked immunosorbent assay.

In assay [2] the target is T2, lysozyme from chicken egg white (Lyz, with C-FLAG-tag) (chicken, UniProt P00698).
T2 construct: lysozyme from chicken egg white, synthesised codon-optimised gene with an alpha-factor leader; band of 15 kDa; probably the mature lysozyme behind the leader; A spacer EEGEPK may stand at the N-terminus; source: S. cerevisiae, secreted with alpha-factor leader; culture supernatant concentrated eight times; not shown: FLAG, C-terminal, kept
Put plainly: pull-down; Nan-His6 from culture supernatant held on cobalt-based Dynabeads and washed; supernatant with Lyz-FLAG (concentrated eight times) added in pull-down buffer (sodium phosphate pH 7.4, NaCl, Tween-20), 4 C, 30 min; imidazole elution; SDS-PAGE and anti-FLAG western blot. As to conditions: one partner purified. On the technique in general: Immunoblotting shows a protein as a band on a membrane.

T2 sequence (P00698 19-147): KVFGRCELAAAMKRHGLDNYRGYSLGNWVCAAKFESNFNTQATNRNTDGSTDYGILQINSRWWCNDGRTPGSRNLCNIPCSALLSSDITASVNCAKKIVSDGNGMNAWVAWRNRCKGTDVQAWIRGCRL
T1 sequence (P00698 19-147): as above

B1: Nanobody (Nan, Camelid), single V-type domain against lysozyme (VHH)
VHH: DVQLQASGGGSVQAGGSLRLSCAASGYTIGPYCMGWFRQAPGKEREGVAAINMGGGITYYADSVKGRFTISQDNAKNTVYLLMNSLEPEDTAIYYCAADSTIYASYYECGHGLSTGGYGYDSWGQGTQVTVSS
notes: camelid VhH against lysozyme, 17 kDa; also called VhH; source: S. cerevisiae HA (also LA, MA), secreted with alpha-factor leader; used as culture supernatant and purified from it by cobalt-based immunoprecipitation; not shown: His6, C-terminal, kept
B1: the binding result in assay [1] and in assay [2] was “binds” each time.

The record behind these values is paper PMC8278646 (Microbial Cell Factories, 2021).
